B1: RORb: RAR-related Orphan Receptor β (NR1F2), cDNA driver (protein, UniProt Q92753 1-470, looked up)
Nuclear receptor ROR-beta: MCENQLKTKADATAQIEVIPCKICGDKSSGIHYGVITCEGCKGFFRRSQQNNASYSCPRQRNCLIDRTNRNRCQHCRLQKCLALGMSRDAVKFGRMSKKQRDSLYAEVQKHQQRLQEQRQQQSGEAEALARVYSSSISNGLSNLNNETSGTYANGHVIDLPKSEGYYNVDSGQPSPDQSGLDMTGIKQIKQEPIYDLTSVPNLFTYSSFNNGQLAPGITMTEIDRIAQNIIKSHLETCQYTMEELHQLAWQTHTYEEIKAYQSKSREALWQQCAIQITHAIQYVVEFAKRITGFMELCQNDQILLLKSGCLEVVLVRMCRAFNPLNNTVLFEGKYGGMQMFKALGSDDLVNEAFDFAKNLCSLQLTEEEIALFSSAVLISPDRAWLIEPRKVQKLQEKIYFALQHVIQKNHLDDETLAKLIAKIPTITAVCNLHGEKLQVFKQSHPEIVNTLFPPLYKELFNPDCATGCK
B2: CAR: Constitutive Androstane Receptor (NR1I3), cDNA driver (protein, UniProt Q14994 1-352, looked up)
Nuclear receptor subfamily 1 …: MASREDELRNCVVCGDQATGYHFNALTCEGCKGFFRRTVSKSIGPTCPFAGSCEVSKTQRRHCPACRLQKCLDAGMRKDMILSAEALALRRAKQAQRRAQQTPVQLSKEQEELIRTLLGAHTRHMGTMFEQFVQFRPPAHLFIHHQPLPTLAPVLPLVTHFADINTFMVLQVIKFTKDLPVFRSLPIEDQISLLKGAAVEICHIVLNTTFCLQTQNFLCGPLRYTIEDGARVSPTVGFQVEFLELLFHFHGTLRKLQLQEPEYVLLAAMALFSPDRPGVTQRDEIDQLQEEMALTLQSYIKGQQRRPRDRFLYAKLLGLLAELRSINEAYGYQIQHIQGLSAMMPLLQEICS
B3: RXRb: Retinoic X Receptor β (NR2B2), cDNA driver (protein, UniProt P28702 1-533, looked up)
Retinoic acid receptor …: MSWAARPPFLPQRHAAGQCGPVGVRKEMHCGVASRWRRRRPWLDPAAAAAAAVAGGEQQTPEPEPGEAGRDGMGDSGRDSRSPDSSSPNPLPQGVPPPSPPGPPLPPSTAPSLGGSGAPPPPPMPPPPLGSPFPVISSSMGSPGLPPPAPPGFSGPVSSPQINSTVSLPGGGSGPPEDVKPPVLGVRGLHCPPPPGGPGAGKRLCAICGDRSSGKHYGVYSCEGCKGFFKRTIRKDLTYSCRDNKDCTVDKRQRNRCQYCRYQKCLATGMKREAVQEERQRGKDKDGDGEGAGGAPEEMPVDRILEAELAVEQKSDQGVEGPGGTGGSGSSPNDPVTNICQAADKQLFTLVEWAKRIPHFSSLPLDDQVILLRAGWNELLIASFSHRSIDVRDGILLATGLHVHRNSAHSAGVGAIFDRVLTELVSKMRDMRMDKTELGCLRAIILFNPDAKGLSNPSEVEVLREKVYASLETYCKQKYPEQQGRFAKLLLRLPALRSIGLKCLEHLFFFKLIGDTPIDTFLMEMLEAPHQLA
B4: RXRg: Retinoic X Receptor γ (NR2B3), cDNA driver (protein, UniProt P48443 1-463, looked up)
Retinoic acid receptor …: MYGNYSHFMKFPAGYGGSPGHTGSTSMSPSAALSTGKPMDSHPSYTDTPVSAPRTLSAVGTPLNALGSPYRVITSAMGPPSGALAAPPGINLVAPPSSQLNVVNSVSSSEDIKPLPGLPGIGNMNYPSTSPGSLVKHICAICGDRSSGKHYGVYSCEGCKGFFKRTIRKDLIYTCRDNKDCLIDKRQRNRCQYCRYQKCLVMGMKREAVQEERQRSRERAESEAECATSGHEDMPVERILEAELAVEPKTESYGDMNMENSTNDPVTNICHAADKQLFTLVEWAKRIPHFSDLTLEDQVILLRAGWNELLIASFSHRSVSVQDGILLATGLHVHRSSAHSAGVGSIFDRVLTELVSKMKDMQMDKSELGCLRAIVLFNPDAKGLSNPSEVETLREKVYATLEAYTKQKYPEQPGRFAKLLLRLPALRSIGLKCLEHLFFFKLIGDTPIDTFLMEMLETPLQIT
B5: HNF4g: Hepatocyte Nuclear Factor γ (NR2A2), cDNA driver (protein, UniProt Q14541 1-408, looked up)
Hepatocyte nuclear factor …: MNTTDNGVNCLCAICGDRATGKHYGASSCDGCKGFFRRSIRKSHVYSCRFSRQCVVDKDKRNQCRYCRLRKCFRAGMKKEAVQNERDRISTRRSTFDGSNIPSINTLAQAEVRSRQISVSSPGSSTDINVKKIASIGDVCESMKQQLLVLVEWAKYIPAFCELPLDDQVALLRAHAGEHLLLGATKRSMMYKDILLLGNNYVIHRNSCEVEISRVANRVLDELVRPFQEIQIDDNEYACLKAIVFFDPDAKGLSDPVKIKNMRFQVQIGLEDYINDRQYDSRGRFGELLLLLPTLQSITWQMIEQIQFVKLFGMVKIDNLLQEMLLGGASNDGSHLHHPMHPHLSQDPLTGQTILLGPMSTLVHADQISTPETPLPSPPQGSGQEQYKIAANQASVISHQHLSKQKQL

What was measured:
Bmal1 promoter = test: NHR-promoter luciferase screen, Bmal1 promoter; type: cell-based, mouse; conditions: for Luc. act., normalized to lacZ / Normalized Luc. act., normalized to control: Bmal1 promoter, HR component without or with ligand; for mBmal1 promoter reporter activity: transcription factor +/- ligand, control = 1.00
Summary of the method: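 Luciferase activity was measured 48 h after transfection, normalized to LacZ and then to a control lacking NHR or ligand. CV-1 cells carried 100 ng Bmal1 reporter, 50 ng NHR construct and 50 ng LacZ.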

mUCP3 promoter = test: NHR-promoter luciferase screen, mUCP3 promoter; type: cell-based, mouse; conditions: for Normalized Luc. act., normalized to control / Luc. act., normalized to lacZ: mUCP3 promoter reporter; for Normalized Luc. act., normalized to control: HR without or with its ligand, relative to control; for Luc. act., normalized to lacZ: hormone receptor (HR) without or with its ligand; for mUCP3 promoter reporter activity: transcription factor +/- ligand, control = 1.00
Summary of the method: (§1)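 CV-1 cells were co-transfected with 50 ng NHR (homodimer or NHR/RXR heterodimer), 100 ng promoter-luciferase construct and 50 ng LacZ. Luciferase was normalized to LacZ and to a no-NHR/no-ligand control.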

mDio2 promoter = test: NHR-promoter luciferase screen, mDio2 promoter; type: cell-based, mouse; conditions: for Luc. act., normalized to lacZ / Normalized Luc. act., normalized to control: Dio2, HR component without or with its ligand; for mDio2 promoter reporter activity: transcription factor +/- ligand, control = 1.00
Summary of the method: as §1

hIFNg promoter = test: NHR-promoter luciferase screen, hIFNg promoter; type: cell-based, human; conditions: for Luc. act., normalized to lacZ / Normalized Luc. act., normalized to control: IFNg promoter, HR component without or with ligand; for hIFNg promoter reporter activity: transcription factor +/- ligand, control = 1.00
Summary of the method: as §1

mADRP promoter = test: NHR-promoter luciferase screen, mADRP promoter; type: cell-based, mouse; conditions: for Luc. act., normalized to lacZ / Normalized Luc. act., normalized to control: ADRP promoter, HR/ligand component; for mADRP promoter reporter activity: transcription factor +/- ligand, control = 1.00
Summary of the method: as §1

MCP-1 promoter = test: NHR-promoter luciferase screen, MCP-1 promoter; type: cell-based; conditions: for Normalized Luc. act., normalized to control / Luc. act., normalized to lacZ: MCP-1 promoter reporter; for Normalized Luc. act., normalized to control: HR without or with its ligand, relative to control; for Luc. act., normalized to lacZ: hormone receptor (HR) without or with its ligand; for mMCP-1 promoter reporter activity: transcription factor +/- ligand, control = 1.00
Summary of the method: as §1

Molecule | Luc. act., normalized to lacZ (Bmal1 promoter) | Normalized Luc. act., normalized to control (Bmal1 promoter) | mBmal1 promoter reporter activity (Bmal1 promoter) | Normalized Luc. act., normalized to control (mUCP3 promoter) | Luc. act., normalized to lacZ (mUCP3 promoter) | mUCP3 promoter reporter activity (mUCP3 promoter) | Luc. act., normalized to lacZ (mDio2 promoter) | Normalized Luc. act., normalized to control (mDio2 promoter) | mDio2 promoter reporter activity (mDio2 promoter) | Luc. act., normalized to lacZ (hIFNg promoter) | Normalized Luc. act., normalized to control (hIFNg promoter) | hIFNg promoter reporter activity (hIFNg promoter) | Luc. act., normalized to lacZ (mADRP promoter) | Normalized Luc. act., normalized to control (mADRP promoter) | mADRP promoter reporter activity (mADRP promoter) | Normalized Luc. act., normalized to control (MCP-1 promoter) | Luc. act., normalized to lacZ (MCP-1 promoter) | mMCP-1 promoter reporter activity (MCP-1 promoter)
B1 | 16.5 | 1.1 | 1.06 | 1.3 | 0.9 | 1.33 | 23.1 | 1.5 | 1.47 | 22.2 | 1.4 | 1.40 | 685.3 | 1.4 | 1.38 | 1.6 | 176.3 | 1.65
B2 | 16.4 | 1.1 | 1.05 | 0.9 | 0.6 | 0.90 | 18.4 | 1.2 | 1.17 | 19.0 | 1.2 | 1.19 | 623.0 | 1.3 | 1.25 | 1.1 | 115.7 | 1.08
B3 | 12.5 | 0.8 | 0.80 | 0.8 | 0.6 | 0.83 | 22.8 | 1.5 | 1.45 | 20.0 | 1.3 | 1.26 | 676.1 | 1.4 | 1.36 | 0.0 | – | 0.00
B4 | 12.7 | 0.8 | 0.81 | 1.4 | 1.0 | 1.41 | 27.8 | 1.8 | 1.77 | 15.2 | 1.0 | 0.96 | 665.8 | 1.3 | 1.34 | 2.0 | 212.4 | 1.98
B5 | 11.5 | 0.7 | 0.73 | 0.8 | 0.6 | 0.84 | 18.0 | 1.1 | 1.14 | 13.3 | 0.8 | 0.83 | 511.7 | 1.0 | 1.03 | 1.2 | 128.6 | 1.20
